We go through one substance from publication doi:10.1101/2021.05.13.443999.

This test addresses p47^phox (human (endogenous in HEK-293 and in human midbrain)) (UniProt P14598). Nature of the test: proximity ligation.
Sequence of UniProt P14598 (P14598 whole entry): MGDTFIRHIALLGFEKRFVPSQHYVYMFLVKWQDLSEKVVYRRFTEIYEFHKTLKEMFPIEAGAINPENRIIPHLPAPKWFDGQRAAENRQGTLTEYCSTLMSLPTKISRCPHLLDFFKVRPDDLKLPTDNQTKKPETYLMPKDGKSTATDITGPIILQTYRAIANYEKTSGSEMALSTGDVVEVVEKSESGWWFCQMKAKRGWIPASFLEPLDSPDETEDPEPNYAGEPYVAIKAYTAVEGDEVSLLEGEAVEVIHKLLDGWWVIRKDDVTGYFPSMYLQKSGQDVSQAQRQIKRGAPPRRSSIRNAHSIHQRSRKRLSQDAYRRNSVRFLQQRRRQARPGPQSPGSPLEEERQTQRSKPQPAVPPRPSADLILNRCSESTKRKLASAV

As a reminder, the IC50 is the concentration needed to halve the response being measured. Higher therefore signals weaker potency in that assay. “NOX2 docking sequence (Nox2ds)-tat (peptide)”: the IC50 was 700 nM.
